B1: luciferase-FOXP2 (wild-type, full-length 1-715) [human] / YFP-PIAS1 (wild-type) [human] (parent complex)
chain 1: MMQESATETISNSSMNQNGMSTLSSQLDAGSRDGRSSGDTSSEVSTVELLHLQQQQALQAARQLLLQQQTSGLKSPKSSDKQRPLQVPVSVAMMTPQVITPQQMQQILQQQVLSPQQLQALLQQQQAVMLQQQQLQEFYKKQQEQLHLQLLQQQQQQQQQQQQQQQQQQQQQQQQQQQQQQQQQQQQQQQQHPGKQAKEQQQQQQQQQQLAAQQLVFQQQLLQMQQLQQQQHLLSLQRQGLISIPPGQAALPVQSLPQAGLSPAEIQQLWKEVTGVHSMEDNGIKHGGLDLTTNNSSSTTSSNTSKASPPITHHSIVNGQSSVLSARRDSSSHEETGASHTLYGHGVCKWPGCESICEDFGQFLKHLNNEHALDDRSTAQCRVQMQVVQQLEIQLSKERERLQAMMTHLHMRPSEPKPSPKPLNLVSSVTMSKNMLETSPQSLPQTPTTPTAPVTPITQGPSVITPASVPNVGAIRRRHSDKYNIPMSSEIAPNYEFYKNADVRPPFTYATLIRQAIMESSDRQLTLNEIYSWFTRTFAYFRRNAATWKNAVRHNLSLHKCFVRVENVKGAVWTVDEVEYQKRRSQKITGSPTLVKNIPTSLGYGAALNASLQAALAESSLPLLSNPGLINNASSGLLQAVHEDLNGSLDHIDSNGNSSPGCSPQPHIHSIHVKEEPVIAEDEDCPMSLVTTANHSPELEDDREIEEEPLSEDLE
chain 2: MADSAELKQMVMSLRVSELQVLLGYAGRNKHGRKHELLTKALHLLKAGCSPAVQMKIKELYRRRFPQKIMTPADLSIPNVHSSPMPATLSPSTIPQLTYDGHPASSPLLPVSLLGPKHELELPHLTSALHPVHPDIKLQKLPFYDLLDELIKPTSLASDNSQRFRETCFAFALTPQQVQQISSSMDISGTKCDFTVQVQLRFCLSETSCPQEDHFPPNLCVKVNTKPCSLPGYLPPTKNGVEPKRPSRPINITSLVRLSTTVPNTIVVSWTAEIGRNYSMAVYLVKQLSSTVLLQRLRAKGIRNPDHSRALIKEKLTADPDSEIATTSLRVSLLCPLGKMRLTIPCRALTCSHLQCFDATLYIQMNEKKPTWVCPVCDKKAPYEHLIIDGLFMEILKYCTDCDEIQFKEDGTWAPMRSKKEVQEVSASYNGVDGCLSSTLEHQVASHHQSSNKNKKVEVIDLTIDSSSDEEEEEPSAKRTCPSLSPTSPLNNKGILSLPHQASPVSRTPSLPAVDTSYINTSLIQDYRHPFHMTPMPYDLQGLDFFPFLSGDNQHYNTSLLAAAAAAVSDDQDLLHSSRFFPYTSSQMFLDQLSAGGSTSLPTTNGSSSGSNSSLVSSNSLRESHSHTVTNRSSTDTASIFGIIPDIISLD
B2: luciferase-FOXP2 (wild-type, full-length 1-715) [human] / YFP-PIAS2 [human] (parent complex)
chain 1: B1 chain 1
chain 2: MADFEELRNMVSSFRVSELQVLLGFAGRNKSGRKHDLLMRALHLLKSGCSPAVQIKIRELYRRRYPRTLEGLSDLSTIKSSVFSLDGGSSPVEPDLAVAGIHSLPSTSVTPHSPSSPVGSVLLQDTKPTFEMQQPSPPIPPVHPDVQLKNLPFYDVLDVLIKPTSLVQSSIQRFQEKFFIFALTPQQVREICISRDFLPGGRRDYTVQVQLRLCLAETSCPQEDNYPNSLCIKVNGKLFPLPGYAPPPKNGIEQKRPGRPLNITSLVRLSSAVPNQISISWASEIGKNYSMSVYLVRQLTSAMLLQRLKMKGIRNPDHSRALIKEKLTADPDSEIATTSLRVSLMCPLGKMRLTIPCRAVTCTHLQCFDAALYLQMNEKKPTWICPVCDKKAAYESLILDGLFMEILNDCSDVDEIKFQEDGSWCPMRPKKEAMKVSSQPCTKIESSSVLSKPCSVTVASEASKKKVDVIDLTIESSSDEEEDPPAKRKCIFMSETQSSPTKGVLMYQPSSVRVPSVTSVDPAAIPPSLTDYSVPFHHTPISSMSSDLPGLDFLSLIPVDPQYCPPMFLDSLTSPLTASSTSVTTTSSHESSTHVSSSSSRSETGVITSSGSNIPDIISLD
B3: luciferase-FOXP2 (wild-type, full-length 1-715) [human] / YFP-PIAS4 [human] (parent complex)
chain 1: B1 chain 1
chain 2: MAAELVEAKNMVMSFRVSDLQMLLGFVGRSKSGLKHELVTRALQLVQFDCSPELFKKIKELYETRYAKKNSEPAPQPHRPLDPLTMHSTYDRAGAVPRTPLAGPNIDYPVLYGKYLNGLGRLPAKTLKPEVRLVKLPFFNMLDELLKPTELVPQNNEKLQESPCIFALTPRQVELIRNSRELQPGVKAVQVVLRICYSDTSCPQEDQYPPNIAVKVNHSYCSVPGYYPSNKPGVEPKRPCRPINLTHLMYLSSATNRITVTWGNYGKSYSVALYLVRQLTSSELLQRLKTIGVKHPELCKALVKEKLRLDPDSEIATTGVRVSLICPLVKMRLSVPCRAETCAHLQCFDAVFYLQMNEKKPTWMCPVCDKPAPYDQLIIDGLLSKILSECEDADEIEYLVDGSWCPIRAEKERSCSPQGAILVLGPSDANGLLPAPSVNGSGALGSTGGGGPVGSMENGKPGADVVDLTLDSSSSSEDEEEEEEEEEDEDEEGPRPKRRCPFQKGLVPAC
B4: luciferase-FOXP2 (wild-type, full-length 1-715) [human] / YFP-PIAS3 [human] (parent complex)
chain 1: B1 chain 1
chain 2: MAELGELKHMVMSFRVSELQVLLGFAGRNKSGRKHELLAKALHLLKSSCAPSVQMKIKELYRRRFPRKTLGPSDLSLLSLPPGTSPVGSPGPLAPIPPTLLAPGTLLGPKREVDMHPPLPQPVHPDVTMKPLPFYEVYGELIRPTTLASTSSQRFEEAHFTFALTPQQVQQILTSREVLPGAKCDYTIQVQLRFCLCETSCPQEDYFPPNLFVKVNGKLCPLPGYLPPTKNGAEPKRPSRPINITPLARLSATVPNTIVVNWSSEFGRNYSLSVYLVRQLTAGTLLQKLRAKGIRNPDHSRALIKEKLTADPDSEVATTSLRVSLMCPLGKMRLTVPCRALTCAHLQSFDAALYLQMNEKKPTWTCPVCDKKAPYESLIIDGLFMEILSSCSDCDEIQFMEDGSWCPMKPKKEASEVCPPPGYGLDGLQYSPVQGGDPSENKKKVEVIDLTIESSSDEEDLPPTKKHCSVTSAAIPALPGSKGVLTSGHQPSSVLRSPAMGTLGGDFLSSLPLHEYPPAFPLGADIQGLDLFSFLQTESQHYGPSVITSLDEQDALGHFFQYRGTPSHFLGPLAPTLGSSHCSATPAPPPGRVSSIVAPGGALREGHGGPLPSGPSLTGCRSDIISLD

Variants of: B1
Experiment: BRET; control donor est. 0.036; read off a plot

Q: With chain 1 K674R as the variant, how does the response read?
A: Its response is about 0.11 BRET ratio.

Variants of: B1
Experiment: BRET; HEK293 cells; n = 3; control donor (nuclear-targeted luciferase) est. 0.000; read off a plot

Q: How did the response turn out when chain 1 R553H was run?
A: Its response is about 0.014 BRET ratio.

Variants of: B2
Experiment: BRET; control donor est. 0.030; read off a plot

Q: With chain 1 K674R as the variant, how does the response read?
A: Its response is about 0.047 BRET ratio.

Variants of: B2
Experiment: BRET; HEK293 cells; n = 3; control donor (nuclear-targeted luciferase) est. -0.008; read off a plot

Q: With chain 1 R553H as the variant, how does the response read?
A: The response was about -0.005 BRET ratio.

Variants of: B3
Experiment: BRET; control donor est. 0.026; read off a plot

Q: For chain 1 K674R, which response is on record?
A: The response was about 0.071 BRET ratio.

Variants of: B3
Experiment: BRET; HEK293 cells; n = 3; control donor (nuclear-targeted luciferase) est. 0.001; read off a plot

Q: Which response does the source give for chain 1 R553H here?
A: Its response is about -0.006 BRET ratio.

Variants of: B4
Experiment: BRET; control donor est. 0.040; read off a plot

Q: chain 1 K674R was tested. Which response did it give?
A: Its response is about 0.087 BRET ratio.

Variants of: B4
Experiment: BRET; HEK293 cells; n = 3; control donor (nuclear-targeted luciferase) est. -0.003; read off a plot

Q: How did the response turn out when chain 1 R553H was run?
A: The response was about 0.026 BRET ratio.
